Reference: PMC4067145 (Biochemistry, 2014)

Tests used:
[1] = target: T1, full-length human U1A protein (human, UniProt P09012 1-282); experiment: other fluorescence titration
[2] = target: T2, full-length human U2B″ protein (human, UniProt P08579 1-225); experiment: other fluorescence titration
[3] = target: T1, full-length human U1A protein; experiment: ITC
[4] = target: T2, full-length human U2B″ protein; experiment: other fluorescence titration; remark: listed apart in the source
[5] = target: T2, full-length human U2B″ protein; experiment: ITC
[6] = target: T1, full-length human U1A protein; experiment: ITC; remark: listed apart in the source
[7] = target: T2, full-length human U2B″ protein; experiment: ITC; remark: listed apart in the source

T2 sequence (P08579 whole entry): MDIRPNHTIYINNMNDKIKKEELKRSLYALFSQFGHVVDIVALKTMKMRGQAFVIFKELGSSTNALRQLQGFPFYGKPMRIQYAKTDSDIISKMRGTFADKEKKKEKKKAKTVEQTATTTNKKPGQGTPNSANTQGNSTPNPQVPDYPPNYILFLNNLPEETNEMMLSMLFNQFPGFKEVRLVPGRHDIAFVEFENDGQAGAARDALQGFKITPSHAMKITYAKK

B1: human U2A′ protein, truncated form that included the first 180 amino acids (LRR domain) (domain or fragment)
chain: MVKLTAELIEQAAQYTNAVRDRELDLRGYKIPVIENLGATLDQFDAIDFSDNEIRKLDGFPLLRRLKTLLVNNNRICRIGEGLDQALPCLTELILTNNSLVELGDLDPLASLKSLTYLSILRNPVTNKKHYRLYVIYKVPQVRVLDFQKVKLKERQEAEKMFKGKRGAQLAKDIARRSKT
B1 was tested, and the Kd [1] was 1400 nM, the Kd [2] was 4.4 nM and the Kd [3] was 1000 nM. The Kd [4] was 5.1 nM, the Kd [5] was 5.9 nM and the Kd [6] was 830 nM. It also gave a Kd [7] of 6 nM.
